B1: TPR t1 (parent)
chain: GACCAAUCUGCCCUCAGAGCUCGAGAACAUCUUCGGAUGCAGAGGAGGCAGGCUUCGGUGGCGCGAUAGCGCCAACGUCCUCAACCUCCAAUGCAUCCCACCACAUGAUGAUGCCUGAAGAGCCUUGGUUUUUUG

Variants of: B1
Experiment: polymerase ribozyme fitness, log enrichment relative to wild type (log ratio); higher = more active; in vitro selection for triplet polymerase activity
In short: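 A single round of triplicate in vitro selection, including frozen incubation at −7 °C, was applied to PCR-built, transcribed mutant libraries of each subunit of a heterodimeric triplet polymerase ribozyme. Illumina sequencing of input and output libraries retained genotypes with ≥10 input reads and ≥1 read per output. Fitness is the base-2 logarithm of genotype enrichment divided by wild-type enrichment, from inverse-variance-weighted replicate averages.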

| Variant | polymerase ribozyme fitness (log ratio) |
| --- | --- |
| C3U U9A C73A C79A U92G | -3.38 |
| C3U U9C C49A G69A C115A | -0.734 |
| C3U U9G G19U G58C | -3.13 |
| C3U U14G A26U G60U C123A | -4.1 |
| C3U U21A A41G G48U C101G C124G | -1.96 |
| C3U U38A G69U U109A | -2.41 |
| C3U U38G C62U G120A A121G G122A C123G U125C | -0.77 |
| C3U U78C A105C C124U | -1.78 |
| C3U U87A A103C | -5.54 |
| C3U U92C | -1.23 |
| C3U U92G G117U A119U | -5.83 |
| C3U U96A | -1.12 |
| C3U U112C | 1.51 |
| C3U U112G C114A | -3.78 |
| C3U U125A | -1.04 |
| C3U U130G | -0.624 |
| C4A A5C C13U G128C | -1.73 |
| C4A A6C C11G C40U G110U | -4.57 |
| C4A A18G C40A C114A A119G | -3.79 |
| C4A A27G A75G G120U | -4.55 |
| C4A A27U | -3.57 |
| C4A A29G C88A | -3.39 |
| C4A A46C | -3.07 |
| C4A A46U | -2.61 |

| Variant | polymerase ribozyme fitness (log ratio) |
| --- | --- |
| C4A A46U C53G U130C | -2.39 |
| C4A A46U C88U U92A U116C | -6.04 |
| C4A A121U U129G | 0.901 |
| C4A C8G G36U G45U G69C U78A C114U | -5.25 |
| C4A C12A C86G G120U G128C | -1.61 |
| C4A C13A A27C C123G | -3.14 |
| C4A C13A G17A C22U A27G A46C G52C | -6.56 |
| C4A C13U C15G A37C G113A A121C | -6.02 |
| C4A C13U C40A G52A C104U | -2.23 |
| C4A C34A G71U | -4.3 |
| C4A C56G C102U | -4 |
| C4A C72G G77A G120A | -1.74 |
| C4A C73A U81A | -3.04 |
| C4A C80A | -5.24 |
| C4A C80A C101U A121G | -1.22 |
| C4A C88A | -1.56 |
| C4A C88U | -1.68 |
| C4A C115U G120A U131A | -5.05 |
| C4A C124A | -0.256 |
| C4A G36A | -2.02 |
| C4A G36U C70U | -3.69 |
| C4A G48U G120U | -3.84 |
| C4A G51U C70A A84C G113U C114U G128A | -6.15 |
| C4A G52C A74C | -2.47 |

| Variant | polymerase ribozyme fitness (log ratio) |
| --- | --- |
| C4A G60A | -0.949 |
| C4A G61C | -3.08 |
| C4A G63A | -1.65 |
| C4A G69U A74G A90U U106A G117C | -4.9 |
| C4A G93A G120C U126G | -1.92 |
| C4A G110U | -3.24 |
| C4A G120U | -1.6 |
| C4A U7A G110U | -2.4 |
| C4A U9A A43U C56A A83C U126A | -4.76 |
| C4G A5C C82U U125A | -1.74 |
| C4G A5G C53A C89A G113U C114U G122U U129G | -4.07 |
| C4G A16C C82U G120C C124A | -3.01 |
| C4G A18C A46G A83U G128A | -5.74 |
| C4G A27G A29G | -5.02 |
| C4G A27U G45A G61A C86A C97A G117A | -6.02 |
| C4G A37G C53U A111C | -1.68 |
| C4G A37U | -1.82 |
| C4G A43U A46G G113A | -3.76 |
| C4G A46U C53A C72A C86A | -2.23 |
| C4G A50C C115U | -4.34 |
| C4G A50U G61U | -2.2 |
| C4G A66G C115A | -2.94 |
| C4G A111G | -1.57 |
| C4G C8A C20G A111C C123G | -4.96 |

| Variant | polymerase ribozyme fitness (log ratio) |
| --- | --- |
| C4G C8G C11A U14G C124U | -0.919 |
| C4G C8G C53A U112G G120A | -2.51 |
| C4G C11G G39A | -1.72 |
| C4G C12A C40A C72U G77U | -3.43 |
| C4G C12A U87G C115U | -3.74 |
| C4G C12U C97A U112C | -2.59 |
| C4G C13A | -3.23 |
| C4G C13G | -3.83 |
| C4G C13U C53U A68G C115G A121U | -1.92 |
| C4G C13U U21C C62G G120U | -2.48 |
| C4G C13U U33G G39U G44A C82U U112A | -4.58 |
| C4G C15A A16U C53A C72U U78C C115U | -3.84 |
| C4G C15U | -2.66 |
| C4G C15U U96A G127C | -2.26 |
| C4G C22G G42A C53G | -4.26 |
| C4G C34A C72G | -5.9 |
| C4G C40U A66C C86G C97A C115G | -6.24 |
| C4G C56A U59G C104U A111U C123U | -4.15 |
| C4G C70G | -3.78 |
| C4G C72U | -1.37 |
| C4G C80U | -1.83 |
| C4G C80U C89G | -4.61 |
| C4G C123G G128C | -0.896 |
| C4G G10C C115U | -3.25 |

| Variant | polymerase ribozyme fitness (log ratio) |
| --- | --- |
| C4G G36A A43C G45U C124G | -4.47 |
| C4G G39U A46C C72A U87G C88G | -3.06 |
| C4G G44A A46U U59C | -3.73 |
| C4G G44C C62U | -2.44 |
| C4G G45A | -2.31 |
| C4G G51U G120U | -4.56 |
| C4G G57C C89A C123A | -3.43 |
| C4G G61A U87G | -2.28 |
| C4G G61U | -1 |
| C4G G71U | -1.92 |
| C4G G113U | -3.96 |
| C4G G135U | -2.5 |
| C4G U7G C8G G71A C98G A103C C114A G122U | -5.04 |
| C4G U9A U112G G117U | -2.18 |
| C4G U9C G57A G63C C79A A84C C89U | -4.8 |
| C4G U9G A41G | -1.21 |
| C4G U9G A41G U96C A111C U116A C123G | -1.71 |
| C4G U32A G71U A121C U129A | -4.53 |
| C4G U32C G45U | -3.28 |
| C4G U54A G60C | -1.88 |
| C4G U78C C88U C94G C124U | -2.42 |
| C4G U87G | -1.54 |
| C4G U106C C115G | -4.76 |
| C4U A5U C31G G45U U54A A68U G110A C114U | -6.24 |

| Variant | polymerase ribozyme fitness (log ratio) |
| --- | --- |
| C4U A6G C13G A83G | -1.95 |
| C4U A6G G39A C72A C85A A90G C114U | -3.29 |
| C4U A16C C64U | -4.16 |
| C4U A16G C49U G69U G113U | -2.65 |
| C4U A16U G42U U59G A84U | -4.24 |
| C4U A18C A29G C56A | -4.17 |
| C4U A18U U55G C86U | -2.79 |
| C4U A24U C70G U92G U116C G120C | -6.86 |
| C4U A27C U54C C82A | -3.17 |
| C4U A27G | -2.96 |
| C4U A27U C72U | -2.49 |
| C4U A37U U38A A46G A50G | -2.72 |
| C4U A41G | -0.698 |
| C4U A41U G44A G45A C53U G63C | -6.08 |
| C4U A43G G47U C53U G61U | -3.38 |
| C4U A43U | -2.23 |
| C4U A43U C88U U92G | -2.04 |
| C4U A46U A95C | -2.04 |
| C4U A68U A100U G117U | -5.92 |
| C4U A90G | -0.325 |
| C4U C8G C13A U21G G77U C82A A84U A121C | -0.469 |
| C4U C8G G47C C123A | -0.0311 |
| C4U C8G U9C C11G C62G | -0.314 |
| C4U C11A A50C C85U U112C | -1.65 |

| Variant | polymerase ribozyme fitness (log ratio) |
| --- | --- |
| C4U C11A G51C | -4.83 |
| C4U C11A G61U C98U G113A U126G | -5.59 |
| C4U C11G C12A G19C C62G | -4.71 |
| C4U C11G U54A G63C C101A U112C | 0.841 |
| C4U C11U A18G C34U C73G C124G | -5.4 |
| C4U C11U A37U G71C | -1.4 |
| C4U C13A A46C A50G C72U | -3.05 |
| C4U C13G C15A G19A A90C C115U A119G | -5.79 |
| C4U C13U G42A G69U G77A A90U C104U | -0.867 |
| C4U C15A C82G | -3.56 |
| C4U C49U A66G G69C U78A | -5.15 |
| C4U C49U C56G C114A G127A | -3.57 |
| C4U C49U C73G A121C | 0.746 |
| C4U C49U C85U C89G | -2.63 |
| C4U C49U C98U | -2.14 |
| C4U C53G G57U G110A | -1.58 |
| C4U C53U U125A | -1.45 |
| C4U C56A C101A G117C | -5.92 |
| C4U C56A U130C | -0.451 |
| C4U C56U | -0.85 |
| C4U C62G U112A | -1.6 |
| C4U C62U C124G | 1.31 |
| C4U C64A A68C C79A G120U | -6.51 |
